In patent US20160068605A1 (Janssen / Centocor, published 2016):

Key:
[1] = biological target: T1, human CD123 SP1 ECD displayed on pDisplay-transfected cells (human, UniProt P26951 20-305); assay: MSD-CAT, hCD123 cells, assay-1; apparent KD (bivalent)
T1 construct: ECD anchored on the surface of stably transfected HEK293 cells by the PDGFR transmembrane domain; also called hCD123 SP1 cells; hCD123 cells
T1 sequence: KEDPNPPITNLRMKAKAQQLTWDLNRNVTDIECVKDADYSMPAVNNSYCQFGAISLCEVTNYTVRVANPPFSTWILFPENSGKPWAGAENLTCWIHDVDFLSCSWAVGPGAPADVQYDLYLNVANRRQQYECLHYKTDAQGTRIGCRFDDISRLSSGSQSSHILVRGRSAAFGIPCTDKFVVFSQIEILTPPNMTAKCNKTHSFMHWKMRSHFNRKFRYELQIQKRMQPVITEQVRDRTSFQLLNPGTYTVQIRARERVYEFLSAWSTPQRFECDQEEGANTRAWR

[2] = biological target: T2, cyno CD123 ECD displayed on pDisplay-transfected cells (cynomolgus monkey); assay: MSD-CAT, cynoCD123 cells, assay-1; apparent KD (bivalent)
T2 construct: ECD anchored on the surface of stably transfected HEK293 cells; also called cynoCD123 SP1 cells; cynoCD123 cells
T2 chain: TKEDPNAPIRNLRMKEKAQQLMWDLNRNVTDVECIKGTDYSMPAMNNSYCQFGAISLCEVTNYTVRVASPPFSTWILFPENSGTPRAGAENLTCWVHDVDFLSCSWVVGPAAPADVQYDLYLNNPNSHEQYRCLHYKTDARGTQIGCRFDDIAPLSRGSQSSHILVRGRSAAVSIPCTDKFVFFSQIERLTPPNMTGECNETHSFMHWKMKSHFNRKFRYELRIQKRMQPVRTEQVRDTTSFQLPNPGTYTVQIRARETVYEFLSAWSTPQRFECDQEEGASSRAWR

[3] = biological target: T3, Recombinant human CD123 SP1 ECD-His tag protein (human, UniProt P26951 20-305); assay: SPR Biacore T200, captured antibody
T3 construct: bought from R&D Systems (#301-R3/CF); biotinylated for some assays; also called rhCD123 SP1; huCD123 ECD SP1
T3 sequence: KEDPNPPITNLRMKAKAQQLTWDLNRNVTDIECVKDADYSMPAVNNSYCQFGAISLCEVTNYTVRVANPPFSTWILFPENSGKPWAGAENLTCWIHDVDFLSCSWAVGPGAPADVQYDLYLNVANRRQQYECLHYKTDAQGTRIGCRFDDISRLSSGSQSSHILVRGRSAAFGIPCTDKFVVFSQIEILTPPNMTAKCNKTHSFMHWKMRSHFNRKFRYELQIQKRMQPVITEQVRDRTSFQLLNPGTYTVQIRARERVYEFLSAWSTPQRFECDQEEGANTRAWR

- Kd [1]: 0.055 nM
- Kd [2]: 0.832 nM
- Kd [3]: 0.935 nM
- koff [3]: 0.00072 s⁻¹
- kon [3]: 773000 M⁻¹ s⁻¹
B1: I3RB18 (antibody, IgG1, V domains shown)
VH: EVQLVQSGAEVKKPGESLKISCKGSGYSFTSYWISWVRQMPGKGLEWMGIIDPSDSDTRYSPSFQGQVTISADKSISTAYLQWSSLKASDTAMYYCARGDGSTDLDYWGQGTLVTVSS
VL: EIVLTQSPGTLSLSPGERATLSCRASQSVSSSYLAWYQQKPGQAPRLLIYGASSRATGIPDRFSGSGSGTDFTLTISRLEPEDFAVYYCQQDYGFPWTFGQGTKVEIK
notes: IgG1; also called 13RB18; mAb I3RB18
